According to patent publication US20120164159A1 (OPSONA THERAPEUTICS, published 2012):

T1: rmTLR2/Fc (recombinant murine TLR-2) (Mus musculus, UniProt Q9QUN7 25-587, limits assumed)
T1 construct: Recombinant Fc fusion used as SPR analyte, MW of 98 kDa printed; also called murine receptor
T1 sequence: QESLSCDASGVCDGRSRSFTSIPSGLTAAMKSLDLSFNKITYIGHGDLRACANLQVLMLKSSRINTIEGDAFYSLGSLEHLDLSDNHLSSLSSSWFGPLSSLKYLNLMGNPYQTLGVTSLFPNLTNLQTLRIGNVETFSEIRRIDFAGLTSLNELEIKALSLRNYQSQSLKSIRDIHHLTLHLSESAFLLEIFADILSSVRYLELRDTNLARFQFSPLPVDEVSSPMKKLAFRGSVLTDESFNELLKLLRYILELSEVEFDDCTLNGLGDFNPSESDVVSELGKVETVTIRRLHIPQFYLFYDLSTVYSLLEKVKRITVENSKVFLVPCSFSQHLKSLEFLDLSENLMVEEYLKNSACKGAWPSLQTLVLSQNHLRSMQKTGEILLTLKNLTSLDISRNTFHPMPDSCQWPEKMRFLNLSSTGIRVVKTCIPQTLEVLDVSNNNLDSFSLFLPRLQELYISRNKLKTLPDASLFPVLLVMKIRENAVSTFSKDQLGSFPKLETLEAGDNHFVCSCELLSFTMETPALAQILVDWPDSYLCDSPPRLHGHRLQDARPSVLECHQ

B1: T2.5 murine anti-Toll-like Receptor 2 monoclonal antibody (clone T2.5, HyCult Biotechnology, catalogue number 1054) (antibody, mouse IgG1, V domains shown)
VH: QVQLQQSGPELVNPGASVKLSCKASGFTFTTYGINWVKQGPGQGLEWIGWIYPRDGSTNFNENFKDKAALTVDTSSSTAYMELHSLTSEDSAVYFCARLTGGTFLDYWGQGTTLTVSS
VL: DIVLTQSPASLAVSLGQRATISCRASESVEYYGTSLMQWYQQKPGQPPKLLIFGASNVESGVPVRFSGSGSGTDFSLNIHPVEEDDIVMYFCQQSRKLPWTFGGGTKLEIK
notes: Murine IgG1, bought; also called OPN301
B2: OPN-305 fully humanised anti-Toll-like Receptor 2 monoclonal antibody (antibody, human IgG4 S228P, kappa, V domains shown)
VH: QVQLVQSGSELKKPGASVKLSCKASGFTFTTYGINWVRQAPGQGLEWIGWIYPRDGSTNFNENFKDRATITVDTSASTAYMELSSLRSEDTAVYFCARLTGGTFLDYWGQGTTVTVSS
VL: DIVLTQSPATLSLSPGERATLSCRASESVEYYGTSLMQWYQQKPGQPPKLLIFGASNVESGVPDRFSGSGSGTDFTLKISRVEAEDVGMYFCQQSRKLPWTFGGGTKVEIKR
notes: made in NS0 cells; also called variant 21

How the values were obtained:
[1] = target: T2, rhTLR-2 (recombinant human TLR-2) (human, UniProt O60603 21-588, limits assumed); assay: SPR, Biacore T100, antibody amine-coupled to CM5 chip, receptor as analyte, bivalent binding model, 25 C
T2 construct: Soluble recombinant protein reconstituted from dry powder, used as SPR analyte; also called glycosylated human receptor analyte
Protocol: (§1) Upon insertion of the CM5 chip the system was primed and then normalised with BIAnormalising solution (Biacore Preventative Maintenance Kit 2). All samples were run at 25° C. with a sample rack incubated at 25° C. unless stated. The chip was added to the system with HBS-EP used as the running buffer. The chip surface was primed with two 30 second injections of 50 mM NaOH then left until a stable baseline was obtained in all the Flow cells (Fcs).
(§2) All antibodies were immobilised using standard amine coupling chemistry. Immobilisation was carried out at a protein concentration of around 1 μg.ml-1 in 10 mM Acetate buffer pH5.5 to a target response level of 150RUs on three CM5 Series S sensor chips. Kinetic data was obtained at a flow rate of 40 μl·min-1 to minimise any potential mass transfer effects. The blank (no receptor) and a single concentration of the analytes (100 nM) was repeated at the start of the kinetic runs in order to check the stability of both the surface and two receptors over the kinetic analyses. Two repeats of the kinetic analysis were carried out and the results compared.
(§3) Association rates (Kₒₙ) and dissociation rates (Koff) were calculated using a bivalent binding model (BIAcore Evaluation Software version 3.2). The equilibrium dissociation constant (Ko) was calculated as the ratio […].

[2] = target: T1, rmTLR2/Fc (recombinant murine TLR-2); assay: as above
Protocol: as §1, §2, §3

[3] = target: T3, monkey Toll-like Receptor 2 expressed on cynomologus monkey whole blood cells (granulocytes, monocytes) (cynomologus monkey, UniProt Q95M53 19-784); assay: FACS, cynomolgus whole blood, gate Granulocytes (R3), biotinylated OPN301, detection SA-PECy7 [A]
T3 construct: whole, on cells; also called monkey TLR2
Protocol: Cells were then washed and incubated with streptavidin conjugated to PECy7 for a further 30 minutes.
Binding was measured using FACScalibur from Becton Dickinson. FIG. 14A relates to granulocytes. FIG. 14B relates to monocytes. FIG. 14C relates to lymphocytes. […] Accordingly, it can again be seen that OPN305 is competing for monkey Toll-like Receptor 2 binding.

[4] = target: T3, monkey Toll-like Receptor 2 expressed …; assay: FACS, cynomolgus whole blood, gate Granulocytes (R3), OPN305 + FITC mouse anti-hIgG4 [A]

T2 sequence (O60603 21-588 limits assumed): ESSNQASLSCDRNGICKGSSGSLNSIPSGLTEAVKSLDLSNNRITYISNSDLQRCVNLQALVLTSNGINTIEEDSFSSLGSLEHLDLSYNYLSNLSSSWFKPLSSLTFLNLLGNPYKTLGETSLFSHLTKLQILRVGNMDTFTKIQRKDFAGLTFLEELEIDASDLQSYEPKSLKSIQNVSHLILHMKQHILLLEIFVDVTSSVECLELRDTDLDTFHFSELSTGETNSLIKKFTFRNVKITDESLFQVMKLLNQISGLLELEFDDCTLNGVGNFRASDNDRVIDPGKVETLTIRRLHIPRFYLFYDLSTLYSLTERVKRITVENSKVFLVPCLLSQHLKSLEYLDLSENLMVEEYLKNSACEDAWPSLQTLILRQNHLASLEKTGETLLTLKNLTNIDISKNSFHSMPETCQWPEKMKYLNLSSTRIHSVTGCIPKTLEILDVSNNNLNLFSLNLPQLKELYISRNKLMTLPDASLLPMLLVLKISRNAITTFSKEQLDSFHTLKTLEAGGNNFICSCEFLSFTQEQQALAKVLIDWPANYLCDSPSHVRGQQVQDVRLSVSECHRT
T3 sequence (Q95M53 19-784): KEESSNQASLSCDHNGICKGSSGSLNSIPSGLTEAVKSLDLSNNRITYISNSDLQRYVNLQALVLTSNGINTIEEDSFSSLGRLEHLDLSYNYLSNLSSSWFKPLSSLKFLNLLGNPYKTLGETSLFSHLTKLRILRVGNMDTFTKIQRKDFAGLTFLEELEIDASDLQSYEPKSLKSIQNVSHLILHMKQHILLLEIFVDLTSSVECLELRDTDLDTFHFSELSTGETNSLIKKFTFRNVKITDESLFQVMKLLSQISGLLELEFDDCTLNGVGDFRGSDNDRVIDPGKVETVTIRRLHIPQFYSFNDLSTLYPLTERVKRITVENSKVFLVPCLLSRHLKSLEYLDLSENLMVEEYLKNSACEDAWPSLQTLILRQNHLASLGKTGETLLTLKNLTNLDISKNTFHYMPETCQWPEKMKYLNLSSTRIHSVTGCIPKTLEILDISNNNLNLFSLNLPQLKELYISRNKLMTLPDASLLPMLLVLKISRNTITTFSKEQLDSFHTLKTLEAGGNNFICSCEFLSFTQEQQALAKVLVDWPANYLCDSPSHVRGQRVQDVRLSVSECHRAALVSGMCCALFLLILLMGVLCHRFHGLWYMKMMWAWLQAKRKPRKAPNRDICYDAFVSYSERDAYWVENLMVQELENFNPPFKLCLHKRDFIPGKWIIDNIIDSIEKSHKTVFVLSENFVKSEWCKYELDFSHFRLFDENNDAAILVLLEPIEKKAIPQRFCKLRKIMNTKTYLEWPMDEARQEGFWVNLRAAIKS

Binder | Kd [1] | koff [1] | kon [1] | Kd [2] | koff [2] | kon [2] | binding result [3] | binding result [4]
B1 | 0.0482 µM | 0.00023 s⁻¹ | 4820 M⁻¹ s⁻¹ | 0.0156 µM | 0.000141 s⁻¹ | 9700 M⁻¹ s⁻¹ | binds | 
B2 | 0.0289 µM | 8.95e-05 s⁻¹ | 3100 M⁻¹ s⁻¹ | 0.0119 µM | 8.2e-05 s⁻¹ | 6770 M⁻¹ s⁻¹ |  | binds
